T1: monkey SIRPA protein (cynomolgus monkey, UniProt P78324 31-504 (human entry))
T1 construct: Expressed on 293α cells from pcDNA3.2 V5-DEST or pFLAG V5-DEST vectors; also called cynomolgus monkey SIRPA; cSIRPA
T1 chain: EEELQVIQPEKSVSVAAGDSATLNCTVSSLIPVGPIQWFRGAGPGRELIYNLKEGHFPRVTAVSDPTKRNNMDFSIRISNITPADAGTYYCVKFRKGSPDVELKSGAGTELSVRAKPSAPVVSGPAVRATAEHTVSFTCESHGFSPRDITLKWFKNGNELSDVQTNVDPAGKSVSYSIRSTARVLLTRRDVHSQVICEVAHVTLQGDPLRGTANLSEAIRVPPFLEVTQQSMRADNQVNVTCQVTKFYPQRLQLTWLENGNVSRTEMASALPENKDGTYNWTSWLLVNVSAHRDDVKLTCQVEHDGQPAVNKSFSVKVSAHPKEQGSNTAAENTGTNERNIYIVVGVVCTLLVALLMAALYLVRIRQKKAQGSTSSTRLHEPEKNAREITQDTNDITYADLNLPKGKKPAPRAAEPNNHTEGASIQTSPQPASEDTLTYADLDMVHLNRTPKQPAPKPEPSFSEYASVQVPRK

T2: mouse SIRPA_129 (mouse (129), UniProt P97797 32-513)
T2 construct: FLAG-tagged (pFLAG V5-DEST), on 293α cells; also called 129sv
T2 chain: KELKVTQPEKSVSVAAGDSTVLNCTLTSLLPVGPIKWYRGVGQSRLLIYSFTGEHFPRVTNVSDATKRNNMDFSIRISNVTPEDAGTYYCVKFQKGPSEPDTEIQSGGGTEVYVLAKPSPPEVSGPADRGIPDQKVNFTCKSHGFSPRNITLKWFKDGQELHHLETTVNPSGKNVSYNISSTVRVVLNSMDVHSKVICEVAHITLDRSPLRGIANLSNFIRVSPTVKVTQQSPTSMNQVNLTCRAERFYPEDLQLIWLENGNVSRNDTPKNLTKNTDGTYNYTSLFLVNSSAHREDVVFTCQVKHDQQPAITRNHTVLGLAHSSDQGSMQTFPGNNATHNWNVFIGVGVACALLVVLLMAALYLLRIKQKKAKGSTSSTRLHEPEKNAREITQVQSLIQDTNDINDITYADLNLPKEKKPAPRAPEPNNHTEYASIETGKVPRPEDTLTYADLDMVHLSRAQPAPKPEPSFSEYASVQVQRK


How the values were obtained:
monkey SIRPA protein = biological target: T1, monkey SIRPA protein; assay: cell-based ELISA on 293α cells expressing FLAG-tagged monkey SIRPA; Abs 490 normalized to FLAG tag [iii]
Procedure: (§1) The 293a cells, described in Example 1)-6, were prepared at 5× 10⁵ cells/mL in a 10% FBS-containing DMEM medium. pFLAG V5-DEST-SIRPA_V1-V10, pFLAG V5-DEST-monkey SIRPA, pFLAG V5-DEST-mouse SIRPA, or pFLAG V5-DEST was introduced into the cells using Lipofectamine LTX (Invitrogen), and 100 μL each was aliquoted to a 96-well plate (Corning Incorporated) and cultured overnight in a 10% FBS-containing DMEM medium at 37° C. under a 5% CO₂ condition. The obtained introduced cells were used for cell-based ELISA in a state that they adhered. After the culture supernatant was removed, 50 μL per well of hD13_HIL3, hD13_HIL4h, hD13_H2L2, hD13_H2L3, or cD13 prepared in Examples 6 and 7 or a control antibody was added to each of various SIRPA genes-introduced cells at a final concentration of 0 to 10,000 ng/ml, and the mixture was allowed to stand at 4° C. for one hour. Thereafter, binding to human SIRPA was evaluated in the same manner as in Example 5-1.

human SIRPA_V7 = biological target: T3, human SIRPA_V7 (human, UniProt P78324 31-504); assay: cell-based ELISA on 293α cells expressing FLAG-tagged SIRPA_V7; Abs 490 normalized to FLAG tag [iii]
T3 construct: FLAG-tagged (pFLAG V5-DEST), on 293α cells; also called human SIRPA Variant 7
Procedure: as §1

mouse SIRPA_129 = biological target: T2, mouse SIRPA_129; assay: cell-based ELISA on 293α cells expressing FLAG-tagged mouse SIRPA (129sv); Abs 490 normalized to FLAG tag [iii]
Procedure: as §1

human SIRPA_V3 = biological target: T4, human SIRPA_V3 (human, UniProt P78324 31-504); assay: cell-based ELISA on 293α cells expressing FLAG-tagged SIRPA_V3; Abs 490 normalized to FLAG tag [iii]
T4 construct: FLAG-tagged (pFLAG V5-DEST), on 293α cells; also called human SIRPA Variant 3
Procedure: as §1

human SIRPA_V10 = biological target: T5, human SIRPA_V10 (human, UniProt P78324 31-504); assay: cell-based ELISA on 293α cells expressing FLAG-tagged SIRPA_V10; Abs 490 normalized to FLAG tag [ii]
T5 construct: FLAG-tagged (pFLAG V5-DEST), on 293α cells; also called human SIRPA Variant 10
Procedure: as §1

T4 sequence (P78324 other isoform, or with tags, fused parts or gaps limits assumed): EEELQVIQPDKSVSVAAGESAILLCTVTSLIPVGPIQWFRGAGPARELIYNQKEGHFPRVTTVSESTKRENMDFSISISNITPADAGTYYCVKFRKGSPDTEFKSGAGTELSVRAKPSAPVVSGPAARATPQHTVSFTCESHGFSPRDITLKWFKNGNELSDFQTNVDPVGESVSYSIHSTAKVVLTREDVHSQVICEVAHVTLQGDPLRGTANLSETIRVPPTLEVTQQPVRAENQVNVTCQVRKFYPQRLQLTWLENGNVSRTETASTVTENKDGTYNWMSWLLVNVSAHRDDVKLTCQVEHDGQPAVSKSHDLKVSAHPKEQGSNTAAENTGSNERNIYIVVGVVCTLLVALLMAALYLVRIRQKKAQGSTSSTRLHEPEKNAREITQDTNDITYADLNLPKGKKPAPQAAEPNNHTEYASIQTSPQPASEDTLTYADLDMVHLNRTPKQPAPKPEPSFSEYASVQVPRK
T3 sequence (P78324 other isoform, or with tags, fused parts or gaps limits assumed): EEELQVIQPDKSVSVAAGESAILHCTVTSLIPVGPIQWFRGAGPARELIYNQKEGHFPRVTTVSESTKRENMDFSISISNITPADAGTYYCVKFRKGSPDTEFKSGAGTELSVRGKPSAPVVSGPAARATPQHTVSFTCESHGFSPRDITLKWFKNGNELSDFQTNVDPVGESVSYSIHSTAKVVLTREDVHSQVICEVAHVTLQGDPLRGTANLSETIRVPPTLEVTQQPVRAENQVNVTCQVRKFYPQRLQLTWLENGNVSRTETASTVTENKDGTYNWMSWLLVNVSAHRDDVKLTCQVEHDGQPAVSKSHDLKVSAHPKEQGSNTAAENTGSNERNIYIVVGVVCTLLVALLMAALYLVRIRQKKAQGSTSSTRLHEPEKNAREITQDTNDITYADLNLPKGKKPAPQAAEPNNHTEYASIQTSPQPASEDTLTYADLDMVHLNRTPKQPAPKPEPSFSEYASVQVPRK
T5 sequence (P78324 other isoform, or with tags, fused parts or gaps limits assumed): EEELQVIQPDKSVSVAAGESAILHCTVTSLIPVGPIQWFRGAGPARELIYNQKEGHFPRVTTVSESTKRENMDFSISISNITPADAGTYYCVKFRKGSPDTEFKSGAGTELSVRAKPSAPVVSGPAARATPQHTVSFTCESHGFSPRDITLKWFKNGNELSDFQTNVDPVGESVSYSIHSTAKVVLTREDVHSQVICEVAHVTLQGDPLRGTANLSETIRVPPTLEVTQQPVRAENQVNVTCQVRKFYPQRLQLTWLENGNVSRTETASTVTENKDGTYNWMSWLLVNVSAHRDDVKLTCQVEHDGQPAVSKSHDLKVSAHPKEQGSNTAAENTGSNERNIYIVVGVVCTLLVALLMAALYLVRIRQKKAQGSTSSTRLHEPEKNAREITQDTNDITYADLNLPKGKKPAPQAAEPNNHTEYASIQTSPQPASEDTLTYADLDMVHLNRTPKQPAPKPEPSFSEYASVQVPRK

Binder | EC50 (read off the curve) (monkey SIRPA protein) | EC50 (read off the curve) (human SIRPA_V7) | binding result (mouse SIRPA_129) | EC50 (read off the curve) (human SIRPA_V3) | EC50 (read off the curve) (human SIRPA_V10)
human chimeric anti-SIRPA antibody cD13 (antibody, human IgG4 S228P, kappa, F234A L235A, V domains shown, Human IgG4proFALA heavy chain, human kappa light chain; also called cD13 (IgG4pf); human chimeric antibody D13) VH: EVQLVESGGGLVQPGRSLKLSCLASGFTFSDYGMIWVRQAPGKGLEWVASISSSSSYIYYADTVKGRFTISRENAKNTLFLHMTSLRSEDTALYYCARRYYGFNYPFDYWGQGVMVTVSS VL: DTVLTQSPALAVSLGQRVTISCGASKSVRTYMHWYQQKSGQQPKLLIYSASNLEAGVPSRFSGSGSGTDFTLTIDPVEADDIANYYCQQSNEPPYTFGAGTKLELKR | ~0.03 µg/mL | ~0.04 µg/mL | no binding (tested: 10000 ng/mL) | ~0.04 µg/mL | ~0.03 µg/mL
humanized anti-SIRPA antibody hD13_H1L3 (antibody, human IgG4 S228P, kappa, F234A L235A, V domains shown, hH1 heavy chain (IgG4proFALA) and hL3 kappa light chain; also called hD13_HIL3; HIL3 antibody) VH: QVQLVESGGGVVQPGRSLRLSCAASGFTFSDYGMIWVRQAPGKGLEWVASISSSSSYIYYADSVKGRFTISRDNSKNRLYLQMNSLRAEDTAVYYCARRYYGFNYPFDYWGQGTMVTVSS VL: DTQLTQSPSSLSASVGQRVTITCGASKSVRTYMHWYQQKPGKQPKLLIYSASNLEAGVPSRFSGSGSGTDFTLTISSLQPEDFATYYCQQSNEPPYTFGQGTKLEIKR | ~0.03 µg/mL | ~0.04 µg/mL | no binding (tested: 10000 ng/mL) | ~0.03 µg/mL | ~0.03 µg/mL
humanized anti-SIRPA antibody hD13_H1L4 (antibody, human IgG4 S228P, kappa, F234A L235A, V domains shown, hH1 heavy chain (IgG4proFALA) and hL4 kappa light chain; also called hD13_HIL4; hD13_HIL4h) VH: QVQLVESGGGVVQPGRSLRLSCAASGFTFSDYGMIWVRQAPGKGLEWVASISSSSSYIYYADSVKGRFTISRDNSKNRLYLQMNSLRAEDTAVYYCARRYYGFNYPFDYWGQGTMVTVSS VL: DTVLTQSPDSLAVSLGQRATINCGASKSVRTYMHWYQQKPGQQPKLLIYSASNLEAGVPSRFSGSGSGTDFTLTISSLQAEDVAVYYCQQSNEPPYTFGQGTKVEIKR | ~0.03 µg/mL | ~0.04 µg/mL | no binding (tested: 10000 ng/mL) | ~0.03 µg/mL | ~0.03 µg/mL
humanized anti-SIRPA antibody hD13_H2L3 (antibody, human IgG4 S228P, kappa, F234A L235A, V domains shown, hH2 heavy chain (IgG4proFALA) and hL3 kappa light chain; also called H2L3 antibody) VH: EVQLVESGGGVVQPGRSLRLSCAASGFTFSDYGMIWVRQAPGKGLEWVASISSSSSYIYYADSVKGRFTISRDNSKNTLYLQMNSLRAEDTAVYYCARRYYGFNYPFDYWGQGTMVTVSS VL: DTQLTQSPSSLSASVGQRVTITCGASKSVRTYMHWYQQKPGKQPKLLIYSASNLEAGVPSRFSGSGSGTDFTLTISSLQPEDFATYYCQQSNEPPYTFGQGTKLEIKR | ~0.03 µg/mL | ~0.04 µg/mL | no binding (tested: 10000 ng/mL) | ~0.04 µg/mL | ~0.03 µg/mL
humanized anti-SIRPA antibody hD13_H2L2 (antibody, human IgG4 S228P, kappa, F234A L235A, V domains shown, hH2 heavy chain (IgG4proFALA) and hL2 kappa light chain; also called H2L2 antibody) VH: EVQLVESGGGVVQPGRSLRLSCAASGFTFSDYGMIWVRQAPGKGLEWVASISSSSSYIYYADSVKGRFTISRDNSKNTLYLQMNSLRAEDTAVYYCARRYYGFNYPFDYWGQGTMVTVSS VL: AIQLTQSPSSLSASVGQRVTITCGASKSVRTYMHWYQQKPGKAPKLLIYSASNLEAGVPSRFSGSGSGTDFTLTISSLQPEDFATYYCQQSNEPPYTFGQGTKLEIKR | ~0.03 µg/mL | ~0.04 µg/mL | no binding (tested: 10000 ng/mL) | ~0.04 µg/mL | ~0.03 µg/mL

From patent publication US20260098102A1 (NATIONAL UNIVERSITY CORPORATION KOBE UNIVERSITY, published 2026)
